B1: Pistol ribozyme (parent)
chain: GGGUCGUUGUUCCAUAAUCGCGUGGAUAUGGCACGCAAGUUUCUACCGGGCACCGUAAAUGUCCGACUGGAGCCGUUCGGGCGGCUAUAAACAGACCUCAGGCCCGAAGCGUGGCGGCACCUGCCGCCGGUGGUAAAAAAGAUCGGAAGAGCACACGUCU

Variants of: B1
Test: aptazyme ON/OFF ratio, guanine; higher = stronger switching; co-transcriptional cleavage with and without guanine

Going from U7C U8C G9U U10G U11C C13U to U7C U8C G9U U10G U11C C13G, the “aptazyme ON/OFF ratio” value falls from 1.21 to 1.06.

Going from U7C U8C G9U U10G U11C C13A to U7C U8C G9U U10C C12G C13A, the “aptazyme ON/OFF ratio” value falls from 1.29 to 1.11.

Going from U7C U8C G9U U10C C12G C13G to U7C U8C G9U U10C C12G C13U, the “aptazyme ON/OFF ratio” value rises from 1.11 to 1.13.

U7C U8C G9U U10C U11C C12U C13A and U7C U8C G9U U10C U11C C12U C13U are the same in “aptazyme ON/OFF ratio” value: 1.08 for the first, 1.08 for the second.

First: U7C U8C G9U U10C U11C C12U C13G
Second: U7C U8C G9U U10G U11C C12U C13G
The “aptazyme ON/OFF ratio” value of the first is higher: 1.1 for the first, 1.09 for the second.

Going from U7C U8C G9U U10G U11C C12U C13A to U7C U8C G9U U10G U11C C12U C13U, the “aptazyme ON/OFF ratio” value rises from 1.12 to 1.18.

First: U7C U8C G9C U11G C13U
Second: U7C U8C G9C U11G C13G
The “aptazyme ON/OFF ratio” value of the first is lower: 1.1 for the first, 1.12 for the second.

U7C U8C G9C U11G C13A and U7C U8C G9C U10C U11G C12G C13G are the same in “aptazyme ON/OFF ratio” value: 1.12 for the first, 1.12 for the second.

First: U7C U8C G9C U10C U11G C12G C13A
Second: U7C U8C G9C U10C U11G C12G C13U
The “aptazyme ON/OFF ratio” value of the first is lower: 1.08 for the first, 1.11 for the second.

Compared with U7C U8C G9C U10G U11G C12A C13G, U7C U8C G9C U10G U11G C12A C13U is higher in “aptazyme ON/OFF ratio” value: 1.07 for the first, 1.09 for the second.

Compared with U7C U8C G9C U10G U11G C12A C13A, U7C U8C G9U U10A U11C C12A C13A is higher in “aptazyme ON/OFF ratio” value: 1.08 for the first, 1.17 for the second.

First: U7C U8C G9U U10A U11C C12A C13U
Second: U7C U8C G9U U10A U11C C12A C13G
The “aptazyme ON/OFF ratio” value of the first is higher: 1.18 for the first, 1.15 for the second.

Compared with U7C U8C G9C U10G U11A C12G C13U, U7C U8C G9C U10G U11A C12G C13A is lower in “aptazyme ON/OFF ratio” value: 1.08 for the first, 1.05 for the second.

Compared with U7C U8C G9C U10G U11A C12G C13G, U7C U8C G9U U10C U11G is higher in “aptazyme ON/OFF ratio” value: 1.11 for the first, 1.32 for the second.

Going from U7C U8C G9U U10C U11A to U7C U8C G9U U10C U11C, the “aptazyme ON/OFF ratio” value falls from 2.44 to 1.3.

Compared with U7C U8C G9U U10C U11G C12A C13A, U7C U8C G9U U10C U11G C12A C13U is higher in “aptazyme ON/OFF ratio” value: 1.11 for the first, 1.12 for the second.

Going from U7C U8C G9U U10C U11G C12A C13G to U7C U8C G9U U10G C12U, the “aptazyme ON/OFF ratio” value rises from 1.11 to 1.33.

Compared with U7C U8C G9U U10G C12A, U7C U8C G9U U10G C12G is lower in “aptazyme ON/OFF ratio” value: 1.22 for the first, 1.15 for the second.

Going from U7C U8C G9C U10C U11G to U7C U8C G9C U10G C12G C13U, the “aptazyme ON/OFF ratio” value falls from 1.3 to 1.1.

Going from U7C U8C G9C U10G C12G C13G to U7C U8C G9C U10G C12G C13A, the “aptazyme ON/OFF ratio” value falls from 1.09 to 1.05.

Going from U7C U8C G9C U11C C12A C13A to U7C U8C G9C U11C C12A C13G, the “aptazyme ON/OFF ratio” value falls from 1.16 to 1.04.

First: U7C U8C G9C U11C C12A C13U
Second: U7C U8C G9U U10A U11G C12A C13U
The “aptazyme ON/OFF ratio” value of the first is higher: 1.18 for the first, 1.12 for the second.

Going from U7C U8C G9U U10A U11G C12A C13G to U7C U8C G9U U10A U11G C12A C13A, the “aptazyme ON/OFF ratio” value rises from 1.05 to 1.19.

First: U7C U8C G9C U11A C12A C13A
Second: U7C U8C G9C U11A C12A C13U
The “aptazyme ON/OFF ratio” value of the first is lower: 1.1 for the first, 1.13 for the second.

First: U7C U8C G9C U11A C12A C13G
Second: U7C U8C G9C U10G U11A
The “aptazyme ON/OFF ratio” value of the first is lower: 1.14 for the first, 1.3 for the second.

First: U7C U8C G9C U10G U11C
Second: U7C U8C G9C U10G U11G
The “aptazyme ON/OFF ratio” value of the first is higher: 1.5 for the first, 1.09 for the second.

First: U7C U8C G9C U10G U11G C13G
Second: U7C U8C G9C U10G U11G C13U
The “aptazyme ON/OFF ratio” value of the first is lower: 1.08 for the first, 1.1 for the second.

First: U7C U8C G9C U10G U11G C13A
Second: U7C U8C G9C U10G U11C C13G
The “aptazyme ON/OFF ratio” value of the first is lower: 1.06 for the first, 1.08 for the second.

Going from U7C U8C G9C U10G U11C C13A to U7C U8C G9C U10G U11C C13U, the “aptazyme ON/OFF ratio” value falls from 1.22 to 1.08.

First: U7C U8C G9U U10C U11G C12U C13G
Second: U7C U8C G9U U10C U11G C12U C13A
The “aptazyme ON/OFF ratio” value of the first is higher: 1.19 for the first, 1.09 for the second.

First: U7C U8C G9U U10C U11G C12U C13U
Second: U7C U8C G9C U11A C13A
The “aptazyme ON/OFF ratio” value of the first is higher: 1.21 for the first, 1.13 for the second.

First: U7C U8C G9C U11A C13U
Second: U7C U8C G9C U11A C13G
The “aptazyme ON/OFF ratio” value of the first is lower: 1.08 for the first, 1.09 for the second.

Compared with U7C U8C G9U U10G U11A C12U C13U, U7C U8C G9U U10G U11A C12U C13G is lower in “aptazyme ON/OFF ratio” value: 1.21 for the first, 1.12 for the second.

First: U7C U8C G9U U10G U11A C12U C13A
Second: U7C U8C G9C U10G U11C C12U C13G
The “aptazyme ON/OFF ratio” value of the first is lower: 1.1 for the first, 1.14 for the second.

First: U7C U8C G9C U10G U11C C12U C13A
Second: U7C U8C G9C U10G U11C C12U C13U
The “aptazyme ON/OFF ratio” value of the first is lower: 1.07 for the first, 1.17 for the second.

U7C U8C G9U U10C U11A C12U and U7C U8C G9U U10C U11A C12A are the same in “aptazyme ON/OFF ratio” value: 1.26 for the first, 1.26 for the second.

First: U7C U8C G9U U10C U11A C12G
Second: U7C U8C G9C U11A C12G
The “aptazyme ON/OFF ratio” value of the first is higher: 1.34 for the first, 1.14 for the second.

First: U7C U8C G9C U11A C12U
Second: U7C U8C G9C U11A C12A
The “aptazyme ON/OFF ratio” value of the first is lower: 1.14 for the first, 1.23 for the second.

Compared with U7C U8C G9U U10G U11A C12G, U7C U8C G9U U10G U11A C12A is higher in “aptazyme ON/OFF ratio” value: 1.25 for the first, 1.37 for the second.

Going from U7C U8C G9U U10G U11A C12U to U7C U8C G9C U10G U11A C12G, the “aptazyme ON/OFF ratio” value falls from 1.17 to 1.11.

Compared with U7C U8C G9C U10G U11A C12U, U7C U8C G9C U10G U11A C12A is higher in “aptazyme ON/OFF ratio” value: 1.15 for the first, 1.16 for the second.

With U7C U8C G9C U10G C12U C13U the “aptazyme ON/OFF ratio” value was 1.08.

Reference: the RNAGym collection of RNA variant scans (doi:10.1021/acssynbio.7b00057)
